As usually defined, the Kd is the equilibrium constant for the complex coming apart. The low end stands for tighter binding, the high end for weaker binding. One may read the koff as a measure of how fast the partners let go of each other. Higher therefore signals fast dissociation. In general, kon refers to a measure of how fast the partners come together. High values mean fast association, low ones slow association.

The results in this text go back to patent US20260191974A1 (UNIVERSITY OF NORTH CAROLINA AT CHAPEL HILL, published 2026).

Bridges are numbered along the chain shown (N, C = ends). DBX = not defined here

The target in assay [1] is T1, biotinylated B7-H3 (B7-H3b), immune checkpoint protein.
T1 construct: also called biotin immobilized B7-H3; streptavidin immobilized B7-H3
T1 sequence (Q5ZPR3 whole entry, species assumed, looked up): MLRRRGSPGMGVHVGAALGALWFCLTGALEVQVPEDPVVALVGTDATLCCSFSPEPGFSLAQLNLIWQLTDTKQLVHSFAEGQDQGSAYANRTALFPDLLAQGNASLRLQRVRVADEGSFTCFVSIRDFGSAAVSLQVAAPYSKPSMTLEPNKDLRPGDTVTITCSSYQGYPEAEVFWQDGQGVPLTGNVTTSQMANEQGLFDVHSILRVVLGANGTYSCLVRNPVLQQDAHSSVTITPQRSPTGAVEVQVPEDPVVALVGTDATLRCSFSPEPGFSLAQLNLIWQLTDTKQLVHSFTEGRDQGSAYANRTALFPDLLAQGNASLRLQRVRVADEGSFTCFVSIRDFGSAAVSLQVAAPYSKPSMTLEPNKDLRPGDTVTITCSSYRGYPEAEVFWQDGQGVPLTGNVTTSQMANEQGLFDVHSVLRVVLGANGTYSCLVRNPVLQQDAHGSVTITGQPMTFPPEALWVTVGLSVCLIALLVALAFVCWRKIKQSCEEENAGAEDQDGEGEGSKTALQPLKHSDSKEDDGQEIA
The experiment in a line: JP5 alanine mutant library in mRNA display: background screen on beads, then selection on biotinylated B7-H3; NGS, enrichment in the selection over the input library. The text has this:
FIGS. 17A-17B. JP5 alanine mutant library design and screen. (FIG. 17A) Each library member with the parent JP5 sequence on the top. JP5 was mutated at each residue to an Alanine. All library members, and JP5, were screened first against background components (magnetic beads) to remove nonspecific binders and then against biotinylated B7-H3 (see FIG. 14B). […] A value of >1 indicates stronger enrichment in the selection, whereas a value<1 indicates a stronger enrichment in the input library.
A single variant library of JP5 (FIG. 13A) and JP3 (FIG. 14A) was carried out. Each residue was mutated to include potentially 20/20 canonical amino acids. All library members were screened first against background components (magnetic beads) to remove nonspecific binders and then against biotinylated B7-H3 (FIG. 13B). […] The recovered material from the B7-H3 selection of JP5 and JP3 was sent for NGS (FIG. 15 and FIG. 16, respectively). In addition, JP5 was subjected to an alanine mutant scan (FIG. 17A). All library members were screened first against background components (magnetic beads) to remove nonspecific binders and then against biotinylated B7-H3 (see FIG. 13B). […] The selected AMs will be tested with surface plasmon resonance (SPR) to assess binding affinity.

The target in assay [2] is T2, human B7-H3 (hB7-H3) (human, UniProt Q5ZPR3 29-461, limits assumed).
T2 construct: The construct is not described
T2 sequence (looked up): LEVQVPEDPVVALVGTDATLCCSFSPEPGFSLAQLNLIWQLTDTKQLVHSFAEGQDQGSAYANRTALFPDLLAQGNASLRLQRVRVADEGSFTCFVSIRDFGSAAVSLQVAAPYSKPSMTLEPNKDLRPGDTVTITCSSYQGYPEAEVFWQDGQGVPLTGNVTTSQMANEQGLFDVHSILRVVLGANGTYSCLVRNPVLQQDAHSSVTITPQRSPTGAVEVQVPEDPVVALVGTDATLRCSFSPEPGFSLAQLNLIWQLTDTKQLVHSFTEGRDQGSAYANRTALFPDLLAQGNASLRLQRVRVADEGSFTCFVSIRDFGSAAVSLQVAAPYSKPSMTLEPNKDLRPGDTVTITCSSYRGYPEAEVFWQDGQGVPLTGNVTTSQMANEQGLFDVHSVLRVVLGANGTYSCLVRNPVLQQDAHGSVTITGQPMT
Nature of the assay: SPR; reduced (no disulfide bridge). (In general: Surface plasmon resonance follows binding to a sensor surface in real time, without labels.)

The target of assay [3] is T2, human B7-H3 (hB7-H3). The experiment in a line: SPR; hB7-H3 as ligand on the chip, peptide as analyte.
The target in assay [4] is T2, human B7-H3 (hB7-H3). Nature of the assay: SPR.
The target of assay [5] is T3, murine B7-H3 (mB7-H3) (murine, UniProt Q8VE98 29-244, limits assumed).
T3 construct: The construct is not described
T3 sequence (looked up): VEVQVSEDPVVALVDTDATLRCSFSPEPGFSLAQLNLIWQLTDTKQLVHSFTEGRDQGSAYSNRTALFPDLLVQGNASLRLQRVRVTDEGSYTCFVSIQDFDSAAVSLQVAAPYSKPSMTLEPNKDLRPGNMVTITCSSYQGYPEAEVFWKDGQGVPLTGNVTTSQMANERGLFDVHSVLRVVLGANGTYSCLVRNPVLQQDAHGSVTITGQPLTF
Nature of the assay: SPR.

Assay [6] concerns the target T3, murine B7-H3 (mB7-H3). The experiment in a line: SPR; mB7-H3 as ligand on the chip, peptide as analyte.
Assay [7] deals with T2, human B7-H3 (hB7-H3). The experiment in a line: SPR; oxidized (with disulfide bridge).
Assay [8] deals with T1, biotinylated B7-H3 (B7-H3b), immune …. The experiment in a line: SPR, Biacore 8K single-cycle kinetics, biotinylated B7-H3 on NeutrAvidin chip, peptide as analyte. Here is the method: Surface Plasmon Resonance (SPR) analysis. Binding kinetics between our selected peptide (and variants) and biotinylated B7-H3 (B7-H3b) were assessed through SPR analysis using a BIACORE 8K SPR system (GE Healthcare). The running buffer was 1×PBS pH7.5, 0.05% TWEEN® 20 and all analysis was carried out at 25° C. B7-H3b was loaded onto a NeutrAvidin SPR Chip (Series S Sensor Chip NA, 29407997, Cytiva) at a flow rate of […] to a surface density of 1000-1500 response units. Analyte was then injected over a series of five concentrations and quantified by BIACORE single-cycle kinetics method. For our selected peptide (B1.1) and the Met9Nle variant a range of 7.5, 15, 30, 60, 120 nM were run. For the linear variant concentrations of 50, 100, 200, 400, 800 nM were run. Binding sonograms were generated using a standard 1:1 binding kinetics model and kinetics constants determined using standard BIACORE evaluation software.

Assay [9] has the same target. Nature of the assay: SPR (BIACORE 8K, single-cycle kinetics, 1:1 fit); biotinylated B7-H3 on a NeutrAvidin chip, peptide as analyte at 7.5-120 nM. The text has this: FIGS. 4A-4G. (FIG. 4A) Selection schematic detailing the selection process for identifying binders against B7-H3. (FIG. 4B) qPCR results of the mTG mediated B7-H3 selection. (FIG. 4C) B7-H3 selection results and complete NGS analysis of B7-H3 hits. (FIG. 4D) NGS data of the selection hits. […] Arrow indicates the peptide pursued for binding validation. (FIG. 4E) EIC ([M+2], 948.91 m/z) traces corresponding to the product of the mTG reaction with linear B1.1 peptide and the synthetic lactam, disulfide peptide. (FIG. 4F) Surface Plasmon Resonance (SPR) analysis of the selected peptide (B1.1), the Met9Nle variant, and the linear variant. […] The selected B1.1 and the Met9Nle variant were analyzed at analyte concentrations of 7.5, 15, 30, 60, 120 nM. The linear variant was analyzed at analyte concentrations of 50, 100, 200, 400, 800 nM. […] (FIG. 4G) Individual SPR curves. Fitted curve and raw data are shown.
Surface Plasmon Resonance (SPR) analysis. Binding kinetics between our selected peptide (and variants) and biotinylated B7-H3 (B7-H3b) were assessed through SPR analysis using a BIACORE 8K SPR system (GE Healthcare). […] Analyte was then injected over a series of five concentrations and quantified by BIACORE single-cycle kinetics method. […] Binding sonograms were generated using a standard 1:1 binding kinetics model and kinetics constants determined using standard BIACORE evaluation software.

B1: AM7 (peptide)
peptide: Ac-CWTIRDIAGTRC-NH2
modifications: bridge 1-12; also: bracket C1-C12, bond type not given here
notes: Member of the JP5 alanine mutant library; also called JP5 alanine mutant 7
Molecule B1 yielded an SELECTION/INPUT in [1] of 1.53.

B2: AM5 (peptide)
peptide: Ac-CWTIRAINGTRC-NH2
modifications: bridge 1-12; also: bracket C1-C12, bond type not given here
notes: Member of the JP5 alanine mutant library; also called JP5 alanine mutant 5
Regarding B2, in assay [1], the SELECTION/INPUT was determined as 0.411.

B3: reduced B1.1 (no disulfide bridge) (peptide)
peptide: WALQLCHSMFYTCKSG
modifications: no disulfide bridge (reduced cysteines C6 and C13); lactam bridge Q4-K14 and N-terminal acetylation as in B1.1
notes: also called reduced form of B1.1
As for B3, the Kd in assay [2] was 198 nM. Further, in [3], the koff was found to be 14.7 s⁻¹ and the kon was determined as 7.44e+07 M⁻¹ s⁻¹.

B4: AM3 (peptide)
peptide: Ac-CWTARDINGTRC-NH2
modifications: bridge 1-12; also: bracket C1-C12, bond type not given here
notes: Member of the JP5 alanine mutant library; also called JP5 alanine mutant 3
Turning to B4, the SELECTION/INPUT in assay [1] was found to be 0.309.

B5: AM2 (peptide)
peptide: Ac-CWAIRDINGTRC-NH2
modifications: bridge 1-12; also: bracket C1-C12, bond type not given here
notes: Member of the JP5 alanine mutant library; also called JP5 alanine mutant 2
Take B5: the SELECTION/INPUT in assay [1] amounted to 1.4.

B6: AM9 (peptide)
peptide: Ac-CWTIRDINGARC-NH2
modifications: bridge 1-12; also: bracket C1-C12, bond type not given here
notes: Member of the JP5 alanine mutant library; also called JP5 alanine mutant 9
Turning to B6, the SELECTION/INPUT in assay [1] was 0.422.

On to Ac-CWTIRDINGTRCG-NH2 (linker 1-12 via DBX; reading uncertain, also called JP5 variant) [JP5, thioether (dibromoxylene) linked macrocyclic peptide from the DBX-mediated B7-H3 selection], for which the Kd in assay [4] is 772 nM; in assay [5], 591 nM. Also, the koff in assay [3] came out at 0.0966 s⁻¹; in assay [6], 0.0605 s⁻¹. Moreover, the kon was determined as 125000 M⁻¹ s⁻¹ in assay [3] and 102000 M⁻¹ s⁻¹ in [6].

B7: AM1 (peptide)
peptide: Ac-CATIRDINGTRC-NH2
modifications: bridge 1-12; also: bracket C1-C12, bond type not given here
notes: Member of the JP5 alanine mutant library; also called JP5 alanine mutant 1
In assay [1], B7 had an SELECTION/INPUT of 0.33.

B8: AM8 (peptide)
peptide: Ac-CWTIRDINATRC-NH2
modifications: bridge 1-12; also: bracket C1-C12, bond type not given here
notes: Member of the JP5 alanine mutant library; also called JP5 alanine mutant 8
B8 came in with an SELECTION/INPUT in [1] of 0.338.

B9: AM10 (peptide)
peptide: Ac-CWTIRDINGTAC-NH2
modifications: bridge 1-12; also: bracket C1-C12, bond type not given here
notes: Member of the JP5 alanine mutant library; also called JP5 alanine mutant 10
In [1], B9 came in with an SELECTION/INPUT of 1.34.

B10: AM6 (peptide)
peptide: Ac-CWTIRDANGTRC-NH2
modifications: bridge 1-12; also: bracket C1-C12, bond type not given here
notes: Member of the JP5 alanine mutant library; also called JP5 alanine mutant 6
In the case of B10, in assay [1], the SELECTION/INPUT came to 1.99.

B11: AM4 (peptide)
peptide: Ac-CWTIADINGTRC-NH2
modifications: bridge 1-12; also: bracket C1-C12, bond type not given here
notes: Member of the JP5 alanine mutant library; also called JP5 alanine mutant 4
With B11, the SELECTION/INPUT in assay [1] was 0.58.

B12: B1.1, selected cyclic, disulfide peptide (bicyclic: lactam and disulfide), synthetic, without the N-terminal methionine (peptide)
peptide: WALQLCHSMFYTCKSG
modifications: N-terminal acetylation (ac); lactam (isopeptide) bridge Q4-K14; disulfide bond C6-C13
notes: Made by solid phase synthesis on Rink Amide resin; also called Selected B1.1; oxidized B1.1 (with disulfide bridge)
In the case of B12, the Kd in [7] was found to be 105 nM; in assay [6], 161 nM; in assay [8] it was 43.5 nM. Moreover, the koff amounted to 0.0267 s⁻¹ in assay [3], 0.0176 s⁻¹ in [6] and 0.00674 s⁻¹ in [9]. The figures for the association rate constant (kon) in assay [3], in assay [6] and in assay [9] were 253000 M⁻¹ s⁻¹, 109000 M⁻¹ s⁻¹ and 155000 M⁻¹ s⁻¹, respectively.
